Test results taken from patent US20240115742A1, “FLUORINATED FIBERS FOR MULTIMODAL 1H AND 19F MRI, ULTRASOUND, FLUORESCENCE DETECTION AND CONFORMATIONAL AND TEMPERATURE DETECTION BY 19F MRS” (New York University, priority 2022, published 2024).
Several values for one entry are separate records, joined by “and”; a condition that tells them apart may be missing. Identical values can stand only once. Square brackets hold non-standard residues; d marks the D form. Ends that are not written are not given here. LTF = trifluoroleucine

Assays:
TEM of protein fibers = format: physicochemical; details: for average protein fiber diameter (TEM): fibers, 50 mM NaH2PO4 pH 4.0
Protocol: Transmission Electron Microscopy. Transmission electron microscopy (TEM) images were taken with a FEI Talos L120C transmission electron microscope. Protein fiber samples were diluted to 50 μM and 3 μL was spotted on Formvar/carbon-coated copper grids followed by 5 μL wash with water, and 3 μL staining with 1% v/v uranyl acetate solution each with incubation times of 1 min at RT. Fibrils were sized in ImageJ software (Version 1.52q).
Transmission Electron Microscopy. Transmission electron microscopy (TEM) images were taken with a FEI Talos L120C transmission electron microscope. Samples were diluted to 50 μM and 3 μL was spotted on Formvar/carbon-coated copper grids followed by a 5 μL wash with water, and 3 μL staining with 1% v/v uranyl acetate solution each with incubation times of 1 min. Between steps, filter paper was used to wick the grids. Following imaging, fibrils were sized in ImageJ software (Version 1.52q).

[1] = ATR-FTIR peak deconvolution of secondary structure; format: physicochemical
Protocol: Attenuated Total Reflectance-Fourier Transform Infrared Spectroscopy. Secondary structure of protein fiber variants was confirmed using attenuated total reflectance-Fourier transform infrared (ATR-FTIR) spectroscopy using the Nicolet 6700 Fourier Transform Infrared Spectrometer equipped with a diamond ATR accessory and a mercury cadmium telluride (MCT)-A detector. Spectra were collected for 5 μL of 500 μM protein from 4000-400 cm^−1 with 0.5 cm^−1 increments at room temperature (RT). For CCM bound protein, protein was bound at a final concentration of 500 μM and saturated with CCM as determined by fluorescent spectroscopic drug binding with a final 1% v/v DMSO. Sample spectra were normalized using buffer background and analyzed from 1700-1600 cm^−1 corresponding to the amide I region. Peaks were deconvoluted using Gaussian functions in PeakFit software until the goodness of fit reached r^2≥0.99. Peaks were associated with secondary structure were determined by methods known in the art.
(§1) Attenuated Total Reflectance-Fourier Transform Infrared Spectroscopy. Secondary structure of Q2 protein was confirmed using attenuated total reflectance-Fourier transform infrared (ATR-FTIR) spectroscopy using the Nicolet 6700 Fourier Transform Infrared Spectrometer equipped with a diamond ATR accessory and a mercury cadmium telluride (MCT)-A detector. Spectra were collected for 5 μL of 2 mM protein from 4000-400 cm^−1 with 0.5 cm^−1 increments. Sample spectra were normalized using buffer background and analyzed from 1700-1600 cm^−1 corresponding to the amide I region. Peaks were deconvoluted using Gaussian functions in PeakFit software until the goodness of fit reached r^2>0.99.
as §1, with “of Q2LTF and QLTF” for “of Q2”, “using a” for “using the”, “of 1” for “of 2”, “with 4.0” for “with 0.5”, “reached r^2≥0.99.” for “reached r^2>0.99.”
Attenuated Total Reflectance-Fourier Transform Infrared Spectroscopy. Secondary structure before (solution) and after gelation (gel) was also assessed by peak deconvolution of attenuated total reflectance-Fourier transform infrared (ATR-FTIR) spectra. ATR-FTIR measurements were performed using a Nicolet 6700 Fourier Transform Infrared Spectrometer equipped with a mercury cadmium telluride (MCT)-A detector. Spectra were collected for 5 μL samples of protein at 2 mM from 4000-400 cm^−1 with a 4.0 cm^−1 resolution, normalized, and buffer-subtracted prior to analysis from 1700-1600 cm^−1, corresponding to the amide I region. ATR-FTIR measurements were performed immediately after concentration to 2 mM for solution measurements and after. Peaks were deconvoluted using Gaussian functions in PeakFit software until the goodness of fit reached r^2≥0.99.

[2] = Fluorescence recovery after photobleaching (FRAP); details: one-phase association fit
Protocol: Protein fibrils are capable of blue autofluorescence as a result of protein self-assembly. Fluorescent recovery after photobleaching (FRAP) is measured by photobleaching using a 405 nm laser and measuring the spot intensity over time. This behavior was previously confirmed in the Q protein in a recent characterization. Using the correlation between autofluorescence and fibrilization, the relative autofluorescence of the coiled-coil protein hydrogels was measured. […] To assess the relative laser response, hydrogels were subjected to FRAP imaging using two 100% intensity bleaches at 405 nm excitation followed by imaging at 2 second frame intervals (FIG. 53c).
Confocal Imaging and Fluorescence Recovery After Photobleaching (FRAP). FRAP experiments were performed with a Stellaris 8 Falcon laser scanning confocal microscope on an inverted DMi8 CS stand equipped with 63X NA 1.4 lens. Images were taken with a laser at 405 nm excitation. A pre-bleach image was taken followed by two bleach images using 100% laser intensity for 1.5 s. Following, 41 images were taken post-bleach at 2 s intervals. To measure recovery, FIJI (version 2.3.0) was used to automate background and recovery imaging following photobleaching. Independent background intensities were fit to a one-phase decay equation in GraphPad Prism. Background loss, as a result of photobleaching, from fit values were added to spot intensity values before being fit to a one-phase association equation in GraphPad Prism.

Parallel plate rheology = format: physicochemical; details: 10 Hz, 5% strain
Protocol: Rheology. Mechanical integrity of the Q2 hydrogel was assessed using a stress-controlled rheometer (Discovery Hybrid Rheometer 2, TA Instruments) equipped with a parallel plate geometry. After complete gelation of a 2 mM sample at 4° C., the sample was loaded onto the 8 mm diameter lower and upper plates with a 0.2 mm geometry gap. Strain and frequency settings were informed from previous Q hydrogel studies where the storage modulus (G′) and loss modulus (G″) were measured over the frequency range 0.1-10 Hz with a 5% oscillation strain.
Rheology. Q hydrogel variants were assessed for relative mechanical integrity with a stress-controlled rheometer (Discovery Hybrid Rheometer 2, TA Instruments) equipped with a parallel plate geometry. In parallel with microrheology measurements, 100 μL of each variant was incubated at 4° C. Upon gelation as assessed by microrheology, hydrogels were loaded onto an 8 mm diameter lower and upper plate with a 0.2 mm geometry gap. Storage modulus (G′) and loss modulus (G″) were measured from 0.1-10 Hz with 5% oscillation strain.

Q: Which results are given for “Q2LTF: protein-engineered fluorinated coiled-coil fiber, Q2 with trifluoroleucine, SEQ ID NO: 20 (MRGSHHHHHHGSIEGRVKE[LTF][LTF]F[LTF]KKTAEQM[LTF]EE[LTF]KETNKA[LTF]HDVRH[LTF][LTF]ENQSK[LTF]; ends and bridges not checked) [Protein Q2LTF]”?
A: fiber assembly size by TEM (TEM of protein fibers; 2 mM, 50 mM Tris, 500 mM NaCl, pH 8.0, 4 °C, n=20): 215.8±38.6 nm; diameter of large fiber aggregates (TEM of protein fibers; as E88): ≤ 840 nm; median fiber diameter (TEM of protein fibers; as E88): 181.7 nm; striation (protofibril) size by TEM (TEM of protein fibers; n=20): 3.6±0.8 nm; α-helical content [1]: 42.4±8.6%; aggregated strands ([1]; fluorinated constructs, Tris buffer): 6.8 % composition

Q: Which results are given for “Q: rationally designed pentameric coiled-coil derived from C, SEQ ID NO: 23 (MRGSHHHHHHGSIEGRVKEITFLKNTAPQMLRELQETNAALQDVRELLRQQSKL) [reference compound]”?
A: average protein fiber diameter (TEM) (TEM of protein fibers): 208±82 nm; Halftime [2]: 9.9 s; K [2]: 0.1 s⁻¹; Tau [2]: 14.3 s; aggregated strands ([1]; native): 6.0%; antiparallel β-sheet/aggregated strands ([1]; native): 13.0%; aggregated strands ([1]; w/CCM): 15.4 ± 3.8%; antiparallel β-sheet/aggregated strands ([1]; w/CCM): 7.8%

Q: Which results are given for “Q2: coiled-coil protein redesigned from Q for reduced lateral assembly, SEQ ID NO: 11 (MRGSHHHHHHGSIEGRVKELLFLKKTAEQMLEELKETNKALHDVRHLLENQSKL) [Protein Q2]”?
A: average protein fiber diameter (TEM) (TEM of protein fibers): 91±37 nm; Halftime [2]: 11.1 s; K [2]: 0.1 s⁻¹; Tau [2]: 16.0 s; storage modulus G′ (Parallel plate rheology): 289.6±86.9 Pa; aggregated strands ([1]; Gel, 2 mM): 2.3 % composition; aggregated strands ([1]; Solution, 2 mM): 2.1 % composition; aggregated strands ([1]; native): 3.9%; antiparallel β-sheet/aggregated strands ([1]; native): 20.6%; change in α-helical content upon gelation ([1]; solution to gel): +12.8%; aggregated strands ([1]; w/CCM): 10.6%; antiparallel β-sheet/aggregated strands ([1]; w/CCM): 0.0%

Q: Which Halftime [2] does the source give for “Q5: Q hydrogel variant from Rosetta Monte Carlo search, SEQ ID NO: 14 (MRGSHHHHHHGSIEGRVKEITFIKKTIEQIAEEMKEINKAIHDIRHALENISKK) [Protein Q5]” here?
A: Its Halftime is 12.3 s.

Q: And the K [2]?
A: The K was 0.1 s⁻¹.

Q: What about the Tau [2] of the same substance?
A: Its Tau is 17.7 s.

Q: And the “loss modulus G″” value (Parallel plate rheology)?
A: Its value is 12±6 Pa and 11.8 ± 6.1 Pa.

Q: And the “storage modulus G′” value (Parallel plate rheology)?
A: The value was 229±52 Pa and 228.7 ± 52.2 Pa.

Q: For “Q3: Q variant with V44I pore mutation, SEQ ID NO: 12 (MRGSHHHHHHGSIEGRVKEILFLKNTAYQMLLELKETNEALYDIRHLLQQQSKL) [Protein Q3]”, which “average protein fiber diameter (TEM)” value (TEM of protein fibers) is on record?
A: Its value is 130±27 nm.

Q: What about the Halftime [2] of the same substance?
A: Its Halftime is 34.8 s.

Q: And the K [2]?
A: The K was 0.0 s⁻¹.

Q: What about the Tau [2] of the same substance?
A: The Tau was 50.1 s.

Q: And the “loss modulus G″” value (Parallel plate rheology)?
A: The value was 12±2 Pa and 12.3 ± 1.7 Pa.

Q: What about the “storage modulus G′” value (Parallel plate rheology) of the same substance?
A: Its value is 83±35 Pa and 82.5 ± 35.4 Pa.

Q: And the aggregated strands ([1]; native)?
A: The aggregated strands was 5.2%.

Q: And the “antiparallel β-sheet/aggregated strands” value ([1]; native)?
A: Its value is 6.8%.

Q: And the aggregated strands ([1]; w/CCM)?
A: The aggregated strands was 17.8%.

Q: What about the “antiparallel β-sheet/aggregated strands” value ([1]; w/CCM) of the same substance?
A: The value was 7.6%.
